For assay [1], the target named is T1, human LILRB2 expressed on cells (293T-LILRB2, CHO-K1-LILRB2) (human, UniProt Q8N423 22-597).
T1 construct: whole, on cells; the cell line is named under assay; also called HEK293T-LILRB2
In words: flow cytometry, blockade of His-tagged HLA-G tetramer binding to 293T-LILRB2 cells; fit table under the graph. The procedure:
Serial diluted humanized LILRB2 antibodies were then added to the mixture and incubated at room temperature for another 45 minutes. The binding of HLA-G/LILRB2 was detected afterwards using a secondary PE-labeled anti-His tag antibody via flow cytometry.
(A flow cytometer gives signals particle by particle.)

For assay [2], the target named is T2, recombinant human LILRB2 protein (human, UniProt Q8N423 22-460, limits assumed).
T2 construct: also called recombinant LILRB2 protein
Put plainly: ELISA, coated recombinant human LILRB2. Set-up: unit not given here. The procedure:
This affinity maturation library was screened against human LILRB2 to identify antibodies having high binding affinity to LILRB2. Briefly, an ELISA plate was coated with 0.1 ug/well recombinant human LILRB2 protein. Serial diluted maturated h#2E1 antibodies were incubated in the LILRB2 coated plate for 2 hrs. The plate was washed and a secondary HRP-labeled anti-human IgG was then added to each well. After being incubated at room temperature for 1 hour, the colorimetric ELISA signals were developed by adding the TMB substrate and reaction was stopped by 1M H3PO4. Table 7 below provides binding activities of exemplary matured antibodies to recombinant LILRB2 protein.
In general terms: An ELISA detects its analyte on a solid surface through an enzyme-linked reagent.

The target in assay [3] is T1, human LILRB2 expressed on cells …. Put plainly: flow cytometry, 293T-LILRB2 cells. The text has this: The fluorescent signals were detected by flow cytometry.
Assay [4] has the same target. In words: flow cytometry, His-HLA-A2 tetramer (competitor) bound to 293T-LILRB2 cells, relative to no antibody. On the set-up: concentration or dose not given beside the values. The procedure:
Serial diluted h#2E1 antibodies were then added to the mixture and incubated at room temperature for another 45 minutes. […]

The target in assay [5] is LILRB2 antigen of the ELISA of Table 5 (format not specified) (UniProt Q8N423 22-460, limits assumed). In words: ELISA, antibody titration.
Chain of LILRB2 antigen of the ELISA of Table 5 (format not specified) (Q8N423 22-460 limits assumed): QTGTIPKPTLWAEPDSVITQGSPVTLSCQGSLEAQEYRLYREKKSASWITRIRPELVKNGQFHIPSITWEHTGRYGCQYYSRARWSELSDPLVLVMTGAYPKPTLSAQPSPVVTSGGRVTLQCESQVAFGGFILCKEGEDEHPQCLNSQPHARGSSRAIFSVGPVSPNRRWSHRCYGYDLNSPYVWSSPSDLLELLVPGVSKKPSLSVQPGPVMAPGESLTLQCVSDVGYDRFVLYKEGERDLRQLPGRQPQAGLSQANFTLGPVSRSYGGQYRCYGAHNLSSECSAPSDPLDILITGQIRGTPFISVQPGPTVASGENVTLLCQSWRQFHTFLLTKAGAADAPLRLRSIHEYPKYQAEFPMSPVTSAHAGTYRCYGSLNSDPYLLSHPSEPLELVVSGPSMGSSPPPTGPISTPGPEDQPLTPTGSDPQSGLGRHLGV

T1 sequence (Q8N423 22-597): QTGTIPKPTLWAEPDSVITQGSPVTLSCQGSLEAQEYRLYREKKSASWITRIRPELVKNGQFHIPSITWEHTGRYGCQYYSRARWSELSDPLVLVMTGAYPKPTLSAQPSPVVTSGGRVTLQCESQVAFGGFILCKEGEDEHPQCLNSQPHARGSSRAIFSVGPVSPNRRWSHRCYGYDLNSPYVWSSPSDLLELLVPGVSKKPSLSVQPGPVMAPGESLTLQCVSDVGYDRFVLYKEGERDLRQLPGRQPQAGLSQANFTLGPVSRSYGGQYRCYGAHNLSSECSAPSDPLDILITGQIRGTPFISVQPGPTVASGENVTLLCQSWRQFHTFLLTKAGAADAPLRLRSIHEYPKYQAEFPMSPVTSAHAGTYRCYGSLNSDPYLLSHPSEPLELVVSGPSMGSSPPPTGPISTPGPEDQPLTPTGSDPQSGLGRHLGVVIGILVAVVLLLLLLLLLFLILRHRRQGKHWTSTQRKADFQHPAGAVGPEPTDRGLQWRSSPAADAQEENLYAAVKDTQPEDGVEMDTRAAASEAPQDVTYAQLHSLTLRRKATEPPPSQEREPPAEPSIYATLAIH
T2 sequence (Q8N423 22-460 limits assumed): as the sequence (Q8N423 22-460 limits assumed) above

B1: chimeric 9B6 (antibody, V domains shown)
VH: DVQLVESGGGLVQPGWSRILSCAASGFTFSNFGMHWVRQAPEKGLEWVAYISSGSGTIYYSDTVRGRFTISRDNPKNTLFLLMTSLRSEDTAMYYCTRSDYDGDWFFDVWGAGTTVTVSS
VL: DIVMTQSHRFLSTSVGDRVTITCKASQDVTTAVAWCQQKPGQSPKLLIYSASFRYTGVPDRFTGSGSGTDFTFTINNVQAEDLALYYCQQHFTTPLTFGAGTKLELK
For the molecule B1, the IC50 (usually the concentration that inhibits the measured activity by half) in assay [1] was roughly 0.833 nM.

B2: Antibody 2E1_FD4 (antibody, V domains shown)
VH: EVQLVESGGGLVQPGGSLRLSCAVSGYSITSGYYWNWIRQAPGKGLEWVAYISYDGNPNYNPSLKNRFTISRDTSKNTFYLQMNSLRAEDTAVYYCAREESTMITTAWFAYWGQGTLVTVSS
VL: DIQMTQSPSSLSASVGDRVTITCRASENIYSNLAWYQQKPGKAPKLLIYGATNLASGVPSRFSGSGSGTDYTLTISSLQPEDFATYYCQHFWDTPYTFGQGTKVEIK
As for B2, the Bmax stood at 1.14 in assay [2] and 431000 in assay [3]. Also, the “% no Ab” value in assay [4] was found to be 49%.

B3: Antibody 2E1_GC8 (antibody, V domains shown)
VH: EVQLVESGGGLVQPGGSLRLSCAVSGYSITSGYYWWWIRQAPGKGLEWVAYISYDGNNNYNPSLKNRFTISRDTSKNTFYLQMNSLRAEDTAVYYCAREESTMITTAWFAYWGQGTLVTVSS
VL: DIQMTQSPSSLSASVGDRVTITCRASENIYSNQAWYQQKPGKAPKLLIYGATNRASGVPSRFSGSGSGTDYTLTISSLQPEDFATYYCQHFWDTPYTFGQGTKVEIK
For the molecule B3, the Bmax in assay [2] is 1.44; in assay [3], 697000.

B4: Antibody 2E1_GH11 (antibody, V domains shown)
VH: EVQLVESGGGLVQPGGSLRLSCAVSGYSITSGYYWWWIRQAPGKGLEWVAYISYDGNNNYNPSLKNRFTISRDTSKNTFYLQMNSLRAEDTAVYYCAREESTMITTAWFAYWGQGTLVTVSS
VL: DIQMTQSPSSLSASVGDRVTITCNASENIYSNLAWYQQKPGKAPKLLIYGATNLASGVPSRFSGSGSGTDYTLTISSLQPEDFATYYCQHFWDTPYTFGQGTKVEIK
With B4, the Bmax came to 1.58 in assay [2] and 743000 in assay [3].

B5: Antibody 2E1_GB8 (antibody, V domains shown)
VH: EVQLVESGGGLVQPGGSLRLSCAVSGYSITSGYYWWWIRQAPGKGLEWVAYISYDGNNNYNPSLKNRFTISRDTSKNTFYLQMNSLRAEDTAVYYCAREESTMITTAWFAYWGQGTLVTVSS
VL: DIQMTQSPSSLSASVGDRVTITCSASENIYSNLAWYQQKPGKAPKLLIYGATNLASGVPSRFSGSGSGTDYTLTISSLQPEDFATYYCQHFWDTPYTFGQGTKVEIK
Consider B5, for which the values for the Bmax in assay [2] and in assay [3] were 1.47 and 659000, respectively.

B6: Antibody 2E1_GA4 (antibody, V domains shown)
VH: EVQLVESGGGLVQPGGSLRLSCAVSGYSITSGYAWNWIRQAPGKGLEWVAYISYDGNNNYNPSLKNRFTISRDTSKNTFYLQMNSLRAEDTAVYYCAREESTMITTAWFAYWGQGTLVTVSS
VL: DIQMTQSPSSLSASVGDRVTITCVASENIYSNLAWYQQKPGKAPKLLIYGATNLASGVPSRFSGSGSGTDYTLTISSLQPEDFATYYCQHFWDTPYTFGQGTKVEIK
As to B6, the Bmax is 1.61 in assay [2] and 725000 in assay [3].

B7: Antibody 2E1_GF8 (antibody, V domains shown)
VH: EVQLVESGGGLVQPGGSLRLSCAVSGYSITSGYYWWWIRQAPGKGLEWVAYISYDGNNNYNPSLKNRFTISRDTSKNTFYLQMNSLRAEDTAVYYCAREESTMITTAWFAYWGQGTLVTVSS
VL: DIQMTQSPSSLSASVGDRVTITCRGSENIYSNLAWYQQKPGKAPKLLIYGATNLASGVPSRFSGSGSGTDYTLTISSLQPEDFATYYCQHFWDTPYTFGQGTKVEIK
With B7, the Bmax amounted to 1.56 in assay [2] and 688000 in assay [3].

B8: Antibody 2E1_GE6 (antibody, V domains shown)
VH: EVQLVESGGGLVQPGGSLRLSCAVSGYSITSGYYWWWIRQAPGKGLEWVAYISYDGNNNYNPSLKNRFTISRDTSKNTFYLQMNSLRAEDTAVYYCAREESTMITTAWFAYWGQGTLVTVSS
VL: DIQMTQSPSSLSASVGDRVTITCRASENIYSNNAWYQQKPGKAPKLLIYGATYLASGVPSRFSGSGSGTDYTLTISSLQPEDFATYYCQHFWDTPYTFGQGTKVEIK
Take B8: the values for the Bmax in assay [2] and in assay [3] were 1.65 and 665000, respectively.

B9: Antibody 2E1_GH3 (antibody, V domains shown)
VH: EVQLVESGGGLVQPGGSLRLSCAVSGYSITSGYYWNWIRQAPGKGLEWVAYISYDGNNNYNPSLKNRFTISRDTSKNTFYLQMNSLRAEDTAVYYCAREESTMITTAWFAYWGQGTLVTVSS
VL: DIQMTQSPSSLSASVGDRVTITCRASENIYSNLAWYQQKPGKAPKLLIYGATNLSSGVPSRFSGSGSGTDYTLTISSLQPEDFATYYCQHFWDTPYTFGQGTKVEIK
Turning to B9, the values for the Bmax in assay [2] and in assay [3] were 1.14 and 641000, respectively.

B10: Antibody 2E1_GB7 (antibody, V domains shown)
VH: EVQLVESGGGLVQPGGSLRLSCAVSGYSITSGYYWWWIRQAPGKGLEWVAYISYDGNNNYNPSLKNRFTISRDTSKNTFYLQMNSLRAEDTAVYYCAREESTMITTAWFAYWGQGTLVTVSS
VL: DIQMTQSPSSLSASVGDRVTITCLASENIYSNLAWYQQKPGKAPKLLIYGATNLASGVPSRFSGSGSGTDYTLTISSLQPEDFATYYCQHFWDTPYTFGQGTKVEIK
Take B10: the Bmax in assay [2] was determined as 1.48; in assay [3] it was 636000.

B11: Antibody 2E1_FG2 (antibody, V domains shown)
VH: EVQLVESGGGLVQPGGSLRLSCAVSGYSITSGYYWNWIRQAPGKGLEWVAYISYDGNTNYNPSLKNRFTISRDTSKNTFYLQMNSLRAEDTAVYYCAREESTMITTAWFAYWGQGTLVTVSS
VL: DIQMTQSPSSLSASVGDRVTITCRASENIYSNLAWYQQKPGKAPKLLIYGATNLASGVPSRFSGSGSGTDYTLTISSLQPEDFATYYCQHFWDTPYVFGQGTKVEIK
With B11, the Bmax in assay [2] was 1.26; in assay [3] it was 417000. In addition, in assay [4], the “% no Ab” value was 53.6%.

B12: Antibody 2E1_GH4 (antibody, V domains shown)
VH: EVQLVESGGGLVQPGGSLRLSCAVSGYSITSGYYWWWIRQAPGKGLEWVAYISYDGNNNYNPSLKNRFTISRDTSKNTFYLQMNSLRAEDTAVYYCAREESTMITTAWFAYWGQGTLVTVSS
VL: DIQMTQSPSSLSASVGDRVTITCRASENIYSNLAWYQQKPGKAPKLLIYGATNFASGVPSRFSGSGSGTDYTLTISSLQPEDFATYYCQHFWDTPYTFGQGTKVEIK
As to B12, the Bmax in assay [2] came out at 1.51; in assay [3] it was 646000.

B13: Antibody 2E1_GG1 (antibody, V domains shown)
VH: EVQLVESGGGLVQPGGSLRLSCAVSGYSITSGYAWNWIRQAPGKGLEWVAYISYDGNNNYNPSLKNRFTISRDTSKNTFYLQMNSLRAEDTAVYYCAREESTMITTAWFAYWGQGTLVTVSS
VL: DIQMTQSPSSLSASVGDRVTITCRASENIYSNLAWYQQKPGKAPKLLIYGATNLASGVPSRFSGSGSGTDYTLTISSLQPEDFATYYCQHFWDTPYTFGQGTKVEIK
Regarding B13, the figures for the Bmax in assay [2] and in assay [3] were 1.56 and 688000, respectively.

B14: Antibody 2E1_FF3 (antibody, V domains shown)
VH: EVQLVESGGGLVQPGGSLRLSCAVSGYSITSGYYWNWIRQAPGKGLEWVAYISYDGNNSYNPSLKNRFTISRDTSKNTFYLQMNSLRAEDTAVYYCAREESTMITTAWFAYWGQGTLVTVSS
VL: DIQMTQSPSSLSASVGDRVTITCRASENIYSNLAWYQQKPGKAPKLLIYGATNLASGVPSRFSGSGSGTDYTLTISSLQPEDFATYYCQHFWDTPYTFGQGTKVEIK
As to B14, the Bmax worked out at 1.17 in assay [2] and 434000 in assay [3].

B15: Antibody 2E1_FE1 (antibody, V domains shown)
VH: EVQLVESGGGLVQPGGSLRLSCAVSGYSITSGYYWNWIRQAPGKGLEWVAYISYDGNMNYNPSLKNRFTISRDTSKNTFYLQMNSLRAEDTAVYYCAREESTMITTAWFAYWGQGTLVTVSS
VL: DIQMTQSPSSLSASVGDRVTITCRASENIYSNLAWYQQKPGKAPKLLIYGATNLASGVPSRFSGSGSGTDYTLTISSLQPEDFATYYCQHFWDTPYTFGQGTKVEIK
For the molecule B15, in assay [3], the Bmax is 690000.

B16: Antibody 2E1_GA1 (antibody, V domains shown)
VH: EVQLVESGGGLVQPGGSLRLSCAVSGYSITSGYYWWWIRQAPGKGLEWVAYISYDGNNNYNPSLKNRFTISRDTSKNTFYLQMNSLRAEDTAVYYCAREESTMITTAWFAYWGQGTLVTVSS
VL: DIQMTQSPSSLSASVGDRVTITCRASENIYSNLAWYQQKPGKAPKLLIYGATNLASGVPSRFSGSGSGTDYTLTISSLQPEDFATYYCQHFWDTPYTFGQGTKVEIK
Turning to B16, the Bmax in assay [2] is 1.62; in assay [3], 739000.

B17: Antibody 13C4 (antibody, V domains shown)
VH: QIHLVQSGPELKKPGETVKISCKASGYTFTNYGMNWVKQAPGKALKWMGWMNTYIGEPTYADDFKGRFAFSLETSASTAYLQINNLKNEDMATYFCARRGDYASYYFDYWGQGTTLTVSS
VL: DIVLTQSPATLSVTPGDSVSLSCRASQNINNNLHWYHQKSHESPRLLIKYASQSISGIPSRVSGSGSGTDFTLSIVTVETEDFGMFFCQQSNSWPHTFGGGTKLEIR
notes: Mouse hybridoma mAb purified from ascites
As for B17, in assay [5], binding was characterised by a dissociation constant (Kd) of 11.7 nM.

Values taken from US20240109962A1 (SPARX BIOSCIENCE, published 2024).
